Reference: publication PMC5881502 (The Journal of Cell Biology, 2018)

B1: malate dehydrogenase (MDH) (enzyme)
chain: AKVAVLGASGGIGQPLSLLLKNSPLVSRLTLYDIAHTPGVAADLSHIETRATVKGYLGPEQLPDCLKGCDVVVIPAGVPRKPGMTRDDLFNTNATIVATLTAACAQHCPDAMICIISNPVNSTIPITAEVFKKHGVYNPNKIFGVTTLDIVRANAFVAELKGLDPARVSVPVIGGHAGKTIIPLISQCTPKVDFPQDQLSTLTGRIQEAGTEVVKAKAGAGSATLSMAYAGARFVFSLVDAMNGKEGVVECSFVKSQETDCPYFSTPLLLGKKGIEKNLGIGKISPFEEKMIAEAIPELKASIKKGEEFVKNMK

Columns and labels:
[1] = biological target: B1; assay: HDX-MS
SEC-MALS = biological target: the molecule itself; assay: SEC-MALS
[2] = biological target: Hsp42 WT (purified, C-terminally FLAG-tagged) (S. cerevisiae, UniProt Q12329 1-375); assay: HDX-MS

binding result [1]	binding result [2]	Binder	stoichiometry N (SEC-MALS) [subunits]
binds		Hsp42ΔIDD (purified) (natural protein, S. cerevisiae, UniProt Q12329 1-375, looked up) MSFYQPSLSLYDVLNALSNQTGQRGQQGYPRQPQRPQRYHPHYGQVHVGGHHPRHHPLYSRYNGVPNTYYYQFPGQAYYYSPEYGYDDEDGEEEDQDEDSPEVNVYDTEDTYVVVLALPGANSRAFHIDYHPSSHEMLIKGKIEDRVGIDEKFLKITELKYGAFERTVKFPVLPRIKDEEIKATYNNGLLQIKVPKIVNDTEKPKPKKRIAIEEIPDEELEFEENPNPTVEN	36
		Hsp42ΔPrLD (purified) (domain or fragment, S. cerevisiae, UniProt Q12329 100-375, looked up) MVGDSGTTRQEDGGEDSNSRRYPSYYHCNTARNNRTNQQANSLNDLLTALIGVPPYEGTEPEIEANTEQEGEKGEEKDKKDKSEAPKEEAGETNKEKPLNQLEESSRPPLAKKSSSFAHLQAPSPIPDPLQVSKPETRMDLPFSPEVNVYDTEDTYVVVLALPGANSRAFHIDYHPSSHEMLIKGKIEDRVGIDEKFLKITELKYGAFERTVKFPVLPRIKDEEIKATYNNGLLQIKVPKIVNDTEKPKPKKRIAIEEIPDEELEFEENPNPTVEN	4
	binds	B1	
